This is an account of results in patent US20060099210.

Data set [1] deals with GST-2E11 (fusion protein between GST and a KCNQ2-15b polypeptide comprising exons 13, 14 and 15b; encoded by pGEX-2TK-2E11).
In data set [2] the test system is GST (glutathione S-transferase expressed from the pGEX2TK plasmid; negative control) [GST: P08515].
Sequence of GST (glutathione S-transferase expressed from the pGEX2TK plasmid; negative control) [GST: P08515] (P08515 whole entry): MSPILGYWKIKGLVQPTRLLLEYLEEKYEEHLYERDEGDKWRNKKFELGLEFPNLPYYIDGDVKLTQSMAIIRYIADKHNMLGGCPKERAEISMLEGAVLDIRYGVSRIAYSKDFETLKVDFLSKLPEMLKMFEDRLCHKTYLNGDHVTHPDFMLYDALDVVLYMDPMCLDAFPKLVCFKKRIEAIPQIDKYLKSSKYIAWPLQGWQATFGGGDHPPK

Sequence of GST-2E11 (fusion protein between GST and a KCNQ2-15b polypeptide comprising exons 13, 14 and 15b; encoded by pGEX-2TK-2E11) (chain, as listed by the source): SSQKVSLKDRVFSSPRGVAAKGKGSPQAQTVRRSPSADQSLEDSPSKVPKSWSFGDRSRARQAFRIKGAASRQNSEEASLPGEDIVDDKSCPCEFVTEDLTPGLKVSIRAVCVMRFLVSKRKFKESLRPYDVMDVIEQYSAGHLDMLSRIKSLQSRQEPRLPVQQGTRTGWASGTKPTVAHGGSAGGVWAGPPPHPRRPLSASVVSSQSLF

For “Protein Kinase A Catalytic Subunit (PKA from bovine heart, Sigma)”, the “in vitro phosphorylation with [32P]γATP, SDS-PAGE and autoradiography” value in data set [1] is reported as “a band located at a position corresponding to a protein of a size of about 45 kD did appear”. The “in vitro phosphorylation with [32P]γATP, SDS-PAGE and autoradiography (negative control with GST instead of GST-2E11)” value in data set [2] is listed as “No bands appeared in the three lines corresponding to the negative controls”.
“recombinant GSK-3β kinase (New England Biolabs)”: in data set [1], the “in vitro phosphorylation in the presence of 5 µg of CREB phosphopeptides as competitor” value is “A band did still appear at a position corresponding to the size of GST-2E11, but the intensity of the band was very significantly lower”; the “in vitro phosphorylation with [32P]γATP, SDS-PAGE and autoradiography” value is given as “a band located at a position corresponding to a protein of a size of about 45 kD did appear”. The “in vitro phosphorylation with [32P]γATP, SDS-PAGE and autoradiography (negative control with GST instead of GST-2E11)” value in data set [2] is “No bands appeared in the three lines corresponding to the negative controls”.
